Laboratory results published in paper PMC12547741, “DUF-721 and N-terminal extension of the helicase loader DciA bind ssDNA to promote replicative DnaB helicase loading in Caulobacter crescentus”.

Legend:
[1] = molecular target: ccDnaB-His (wild type); assay: pull-down (Ni-conjugated magnetic beads), quantified from SDS-14% PAGE with Coomassie staining; details: sfTq2-DciA 850 nM, three independent reactions per legend, parent: est. 1.4, read off a plot
[2] = molecular target: ccDnaB-His (wild type) (Caulobacter crescentus); assay: SEC; ccDnaB-His alone on Superdex 200; 25 mM Tris-HCl pH 7.5, 300 mM NaCl, 20% glycerol, 0.1 mM ATP, 5 mM MgCl2; fractions by SDS-PAGE; hexamer
[3] = molecular target: T1, His-DciA R106A (UniProt A0A0H3C5R2 1-179, R106A); assay: EMSA; 50 mM K-glutamate; EMSA: 20 mM Tris-HCl pH 7.5, 10 mM Mg acetate, 50 or 150 mM K-glutamate, 0.1 mg/ml BSA, 10% glycerol, 2 mM ATP, 12.5 nM DNA, 5 min on ice; M13 pull-down: Tris pH 7.5, 10 mM Mg acetate, 50 mM K-glutamate, 0.1 mM ATP, 0.1 mg/ml BSA, 30 C; details: protein: recombinant; tags: N-terminal His6; label: 5'-FAM
[4] = molecular target: T2, His-DciA WT (UniProt A0A0H3C5R2 1-179); assay: as above; details: protein: recombinant; tags: N-terminal His6; label: 5'-FAM
[5] = molecular target: T1, His-DciA R106A; assay: EMSA; 150 mM K-glutamate; EMSA: 20 mM Tris-HCl pH 7.5, 10 mM Mg acetate, 50 or 150 mM K-glutamate, 0.1 mg/ml BSA, 10% glycerol, 2 mM ATP, 12.5 nM DNA, 5 min on ice; M13 pull-down: Tris pH 7.5, 10 mM Mg acetate, 50 mM K-glutamate, 0.1 mM ATP, 0.1 mg/ml BSA, 30 C; details: protein: recombinant; tags: N-terminal His6; label: 5'-FAM
[6] = molecular target: His-DciA 4A (UniProt A0A0H3C5R2 1-179, H98A;Q99A;Q102A;R106A); assay: as above; details: protein: recombinant; tags: N-terminal His6; label: 5'-FAM
[7] = molecular target: T2, His-DciA WT; assay: as above; details: protein: recombinant; tags: N-terminal His6; label: 5'-FAM
[8] = molecular target: His-DciA del1-45 (UniProt A0A0H3C5R2 46-179, del1-45); assay: as above; details: protein: recombinant; tags: N-terminal His6; label: 5'-FAM
[9] = molecular target: His-DciA R106A L119S (RL) (UniProt A0A0H3C5R2 1-179, R106A;L119S); assay: as above; details: protein: recombinant; tags: N-terminal His6; label: 5'-FAM
[10] = molecular target: His-DciA 4A2S (UniProt A0A0H3C5R2 1-179, H98A;Q99A;Q102A;R106A;M109S;L110S); assay: as above; details: protein: recombinant; tags: N-terminal His6; label: 5'-FAM
[11] = molecular target: His-DciA L119S (UniProt A0A0H3C5R2 1-179, L119S); assay: as above; details: protein: recombinant; tags: N-terminal His6; label: 5'-FAM
Chain of His-DciA L119S (A0A0H3C5R2 entry or part of it L119S | L119S L119S): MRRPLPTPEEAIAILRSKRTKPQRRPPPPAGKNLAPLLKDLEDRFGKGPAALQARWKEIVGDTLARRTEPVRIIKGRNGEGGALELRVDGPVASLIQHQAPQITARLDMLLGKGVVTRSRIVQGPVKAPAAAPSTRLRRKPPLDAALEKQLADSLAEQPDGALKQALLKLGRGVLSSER

T1 sequence (A0A0H3C5R2 entry or part of it R106A | R106A R106A): as the sequence (A0A0H3C5R2 entry or part of it L119S | L119S L119S) above, with R106A, S119L counted along it
T2 sequence (A0A0H3C5R2 entry or part of it): as the sequence (A0A0H3C5R2 entry or part of it L119S | L119S L119S) above, with S119L counted along it
Chain of His-DciA R106A L119S (RL) (A0A0H3C5R2 entry or part of it R106A;L119S | R106A L119S R106A L119S): as the sequence (A0A0H3C5R2 entry or part of it L119S | L119S L119S) above, with R106A counted along it
Chain of His-DciA del1-45 (A0A0H3C5R2 entry or part of it del1-45): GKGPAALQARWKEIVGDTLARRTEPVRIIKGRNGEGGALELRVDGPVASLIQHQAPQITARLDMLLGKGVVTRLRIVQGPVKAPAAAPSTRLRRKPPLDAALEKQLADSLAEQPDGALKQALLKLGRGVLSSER
Chain of His-DciA 4A2S (A0A0H3C5R2 entry or part of it H98A;Q99A;Q102A;R106A;M109S;L110S): as the sequence (A0A0H3C5R2 entry or part of it L119S | L119S L119S) above, with H98A, Q99A, Q102A, R106A, M109S, L110S, S119L counted along it
Chain of His-DciA 4A (A0A0H3C5R2 entry or part of it H98A;Q99A;Q102A;R106A): as the sequence (A0A0H3C5R2 entry or part of it L119S | L119S L119S) above, with H98A, Q99A, Q102A, R106A, S119L counted along it

## superfolder mTurquoise2 fluorescent protein-tagged DciA (sfTq2-DciA), wild type R106A
[1]
  response: 1.2 AU

## ccDnaB-His (wild type) (enzyme)
[2]
  stoichiometry N: 6

B1: 80-mer oligo 1790 (ssDNA)
DNA: TCCTTGTTATCCACAGGGCAGTTTTTTTTTTTTTTTTTTTTTTTTTTTTTTTTTTTTTTTTGTGCGATATAGTTCTCCGA
[3]
  Kd: 152 ± 75.4 nM
[4]
  Kd: 49.7 ± 24.4 nM
[5]
  Kd: 115 ± 40.3 nM
[6]
  Kd: 115 ± 40.3 nM
[7]
  Kd: 25.4 ± 8.4 nM
[8]
  Kd: 115 ± 40.3 nM
[9]
  Kd: 115 ± 40.3 nM
[10]
  Kd: 115 ± 40.3 nM
[11]
  Kd: 115 ± 40.3 nM

B2: 35-mer oligo 2201 (ssDNA)
DNA: TTTTTTTTTTTTTTTTTTTTTTTTTTTTTTTTTTT
[3]
  Kd: 35.7 ± 17.6 nM
[4]
  Kd: 19.6 ± 7.03 nM
[5]
  Kd: 543 ± 9.95 nM
[7]
  Kd: 109 ± 21 nM
[8]
  Kd: 520 ± 30.6 nM
[9]
  Kd: 665 ± 47.9 nM
